Test results from patent US20230348573A1 (KEIO UNIVERSITY, published 2023).

B1: Ab326 (antibody, V domains shown)
VH: EVQLVESGGGVVQPGRSLRLSCAASGFTFSHYPMHWVRQAPGRGLEWVAVISYDGSNQHYVDSVKGRFTISRDNSKNTLYLQMNSLRAEDTAVYFCASLITMIRGVPDYWGQGTLVTVSS
VL: DIQMTQSPSSLSASVGDRVTITCRASQSISNYLNWYQQKPGKAPNLLIFAASSLQSGVPSRFSGSGSGTEFTLTISSLQPEDFAAYYCLQTYSTPRTFGQGTRLEIK
B2: Ab159 (antibody, V domains shown)
VH: QVQLVESGGGLVKPGGSLRLSCAASGFTFNNAWMSWVRQAPGKGLEWVGRIKSKTDGGTTDYAAPVKGRFTFSRDDSKNTLYLQMSSLKTEDTALYYCTTADYDILTGTPASPYWGQGTLVTVSS
VL: DIQMTQSPSSLSASVGDRVTITCRASQSITNYLNWYQQKPGKAPKFLIYAASSLQGGVPSRFRGSGSGTDFTLTISSLQPEDFATYYCQQTYSTLWTFGQGTKVEIK
B3: Ab354 (antibody, V domains shown)
VH: QVQLVQSGAEVKKPGASVTVSCKASGFLFTGYYMHWVRQAPGQGLEWMGWINPNSGASNYTRKFQGRVTMTRDTSISATYMKLSRLTSDDTAVYYCARDLAFSMVRGALDYWGQGTLVTVSS
VL: QLVLTQPPSASGSPGQSVTISCTGTSSDVGGYNYVSWYQHHPGKAPKLMIYEVSKRPSGVPDRFSGSKSGNTASLTVSGLQAEDEADYYCNSYAGNNNWVFGTGTKVTVL
B4: Ab864 (antibody, V domains shown)
VH: EVQLVESGGGLVQPGRSLRLSCAASGFTFDDYAMHWVRQVPGKGLEWVSGISWNKGNIDYADSVKGRFTISRDNAKNSLYLQMNSLRPEDTGLYYCAKDCHYDSPGYFPNCLHSWGQGTLVTVSS
VL: EIVMTQSPSSLSASVGDRVTITCRASQGINTYLAWYQQKPGKAPKLLIYTASTLQSGVPSRFSGSGSGTDFTLTISSLQPEDFATYYCQQVHSYPLTFGGGTKVEIK
B5: Ab496 (antibody, V domains shown)
VH: EVQLVQSGPEVKKPGTSVKVSCKASGFIFTNSAVQWVRQARGQRLEWIGWIVVGSGNPNYAQKFQERVTITRDRSTSTAYMELSSLTSEDTAVYYCAAFPYYYDNSGSGPWGQGTLVTVSS
VL: DIQLTQSPSSLSASVGDRVTITCQASQDIRNNLNWYQQIPGKAPKLLIYDASNLETGVPSRFSGSASGTDFTFTISSLQPEDVATYYCQQYANLPPFTFGPGTKVDIK
B6: Ab188 (antibody, V domains shown)
VH: EVQLVESGGGLVQPGGSLRLSCAASGFTFINYKMNWVRQAPGKGLEWVSYISSGSDAIYYADSVKGRFTISRDNAKNSLYLQMNSLRDEDTALYYCARGGGYNYGECMDVWGQGTTVTVSS
VL: not shown
B7: Ab445 (antibody, V domains shown)
VH: EVQLVESGGGVVQPGTSPRLSCAASGFTFSNSGMHWVRQAPGKGLEWVAVIWYDGSKKYYVDSVKGRFTISRDNSKNTLYLQMNSLRAEDTAVYYCARDGTVAVRGVMNPFFDYWGQGTLVTVSS
VL: DIQLTQSPSSLSASVGDRVTITCQASQDISNYLNWYQQIPGKAPKLLIYDASNLETGVPSRFSGSGSGTDFTFTISSLQPEDIATYYCQQYDNLPYTFGQGTKLEIK
B8: Ab287 (antibody, V domains shown)
VH: QVQLVQSGAEVKKPGSSVKVSCKASGDTFSSYAISWVRQAPGQGLEWMGRIILIFGVANYAQKFQGRVTITADKSTSTAYMELSSLRSEDTAVYYCARGGFYYDSSGYHLDYWGQGTLVTVSS
VL: EIVLTQSPGTLSLSPGERATLSCRPSQSVSSSYLAWYQQRPGQAPRLLIYGASSRATGIPDRFSGSGSGTDFTLTISRLEPEDFAVYYCHQYGSSPRTFGQGTKVEIK
B9: Ab336 (antibody, V domains shown)
VH: QVQLQQSGPGLVKPSETLSLTCTVSGGSISSYYWTWIRQPPGKGLEWIAYISYSGSTNYNPSLRSRVTISVDTSKNQFSLKLSSVTAADTAVYYCARDYYYDNSGYPDSYYGMDVWGQGTTVTVSS
VL: DIQLTQSPSTLSASVGDRVTITCRASQRISSWLAWYQQKPGKAPKLLIYKASTLQSGVPSRFSGSGSGTEFTLTISSLQPDDFATYYCQQYNSFSWTFGQGTKVEIK
B10: Ab308 (antibody, V domains shown)
VH: EVQLVQSGAEVKKPGSSVKVSCKASGGTFSSYAINWVRQAPGQGLEWMGRIIPMFGIANYAQKFQGRVTITANKSTSTAYMDLSSLRSEDTAVYYCARSQYYYDSSGYYFDYWGQGTLVTVSS
VL: not shown

The binders below were run against spike protein of SARS-CoV-2 (Wuhan strain) on pseudovirus (SARS-CoV-2 (Wuhan strain), UniProt P0DTC2 14-1254) (assay: cell-based or functional assay).
For B1, the “IC50 of pseudovirus infection (luciferase)” value (“IC50 of pseudovirus infection” below) was 0.031 µg/mL. In the case of B2, the “IC50 of pseudovirus infection” value is reported as 0.00852 µg/mL. For B3, the “IC50 of pseudovirus infection” value was 0.0559 µg/mL. For B4, the “IC50 of pseudovirus infection” value was 0.0084 µg/mL. For B5, the “IC50 of pseudovirus infection” value was 0.00362 µg/mL. With B6 the “IC50 of pseudovirus infection” value was 0.119 µg/mL.

The binders below were run against T1, full-length spike protein of SARS-CoV-2 (Wuhan strain) (SARS-CoV-2 (Wuhan strain), UniProt P0DTC2 14-1273) (assay: ACE2 competition, spike on 293T cells, antibody 4 µg/mL).
T1 construct: whole, on cells; Expressed in 293T cells
In the case of B1, the “binding amount (%) of ACE2 protein” value is reported as 0.2%. B2 was tested, and the “binding amount (%) of ACE2 protein” value was 0.5%. For B7, the “binding amount (%) of ACE2 protein” value was 0.4%. In the case of B3, the “binding amount (%) of ACE2 protein” value is reported as 0.3%. With B8 the “binding amount (%) of ACE2 protein” value was 1.5%. In the case of B4, the “binding amount (%) of ACE2 protein” value is reported as 0.4%. In the case of B9, the “binding amount (%) of ACE2 protein” value is reported as 5.3%. In the case of B10, the “binding amount (%) of ACE2 protein” value is reported as 3.5%. In the case of B5, the “binding amount (%) of ACE2 protein” value is reported as 1.8%. B6 was tested, and the “binding amount (%) of ACE2 protein” value was 1.1%.

The binders below were run against T1, full-length spike protein of SARS-CoV-2 … (assay: ACE2 competition, 293T cells, antibody 4 µg/mL).
For B1, the “ACE2 binding (no antibody = 100)” value was 0.2. In the case of B7, the “ACE2 binding (no antibody = 100)” value is reported as 0.4. For B3, the “ACE2 binding (no antibody = 100)” value was 0.3. In the case of B8, the “ACE2 binding (no antibody = 100)” value is reported as 0.5. For B9, the “ACE2 binding (no antibody = 100)” value was 1. In the case of B10, the “ACE2 binding (no antibody = 100)” value is reported as 4.1. For B5, the “ACE2 binding (no antibody = 100)” value was 1.8. With B6 the “ACE2 binding (no antibody = 100)” value was 2.1.

What follows are binders tested against T2, RBD derived from SARS-CoV-2 (Wuhan strain) (SARS-CoV-2 (Wuhan strain), UniProt P0DTC2 319-541) (assay: BLI (Octet), RBD of the Wuhan strain).
T2 construct: domain: RBD
B1 was tested, and the Kd was 0.0514 nM. B2 was tested, and the Kd was 1.24 nM. Work on B7 yielded a Kd of 0.0593 nM. With B3 the Kd was 0.0726 nM. For B4, the Kd was 3.9 nM. B9 gave a Kd of 2.35 nM. B10 gave a Kd of 6.62 nM.

The binders below were run against T2, RBD derived from SARS-CoV-2 (Wuhan …) (assay: RBD beads, antibody 0.25 µg/mL, then labelled ACE2, flow cytometry).
For B1, the “fluorescence of ACE2 protein” value was 516. B2 was tested, and the “fluorescence of ACE2 protein” value was 486. B7 was tested, and the “fluorescence of ACE2 protein” value was 2200. With B3 the “fluorescence of ACE2 protein” value was 409. With B8 the “fluorescence of ACE2 protein” value was 689. In the case of B9, the “fluorescence of ACE2 protein” value is reported as 1110. In the case of B10, the “fluorescence of ACE2 protein” value is reported as 1390. For B5, the “fluorescence of ACE2 protein” value was 2580. With B6 the “fluorescence of ACE2 protein” value was 1570.

What follows are binders tested against T2, RBD derived from SARS-CoV-2 (Wuhan …) (assay: RBD beads, antibody 1 µg/mL, then labelled ACE2, flow cytometry).
For B1, the “fluorescence of ACE2 protein” value was 39.9. For B2, the “fluorescence of ACE2 protein” value was 114. For B7, the “fluorescence of ACE2 protein” value was 326. With B3 the “fluorescence of ACE2 protein” value was 64.8. With B8 the “fluorescence of ACE2 protein” value was 105. B9 was tested, and the “fluorescence of ACE2 protein” value was 402. With B10 the “fluorescence of ACE2 protein” value was 432. With B5 the “fluorescence of ACE2 protein” value was 129.

What follows are binders tested against T2, RBD derived from SARS-CoV-2 (Wuhan …) (assay: RBD beads, antibody 4 µg/mL, then labelled ACE2, flow cytometry).
For B1, the “fluorescence of ACE2 protein” value was 38.4. With B2 the “fluorescence of ACE2 protein” value was 78.3. In the case of B7, the “fluorescence of ACE2 protein” value is reported as 142. With B3 the “fluorescence of ACE2 protein” value was 42.9. In the case of B8, the “fluorescence of ACE2 protein” value is reported as 32.6. In the case of B9, the “fluorescence of ACE2 protein” value is reported as 106. B10 was tested, and the “fluorescence of ACE2 protein” value was 59. With B5 the “fluorescence of ACE2 protein” value was 41.7. With B6 the “fluorescence of ACE2 protein” value was 148.
